In publication PMC11667166:
Where two headings read alike, the source gives them in different places.

| Substance | localisation_or_trafficking (N-glycosylation at N126) | localisation_or_trafficking (N-glycosylation at N195) | localisation_or_trafficking (N-glycosylation at N213) |
| --- | --- | --- | --- |
| CD320: N126Q | no change |  |  |
| CD320: N126Q/N195Q/N213Q (QQQ) | no change | no change | no change |
| CD320: N195Q |  | no change |  |
| CD320: N213Q |  |  | no change |
